Test results published in patent US6458929 (LICENTIA, dated 2002).

Assays:
[1] = target: T1, myotilin (full length, 498 residues) (human, UniProt Q9UBF9 1-498); experiment: yeast two-hybrid
T1 construct: In the yeast two-hybrid assay, full-length myotilin was expressed as a bait (EG202) or prey (JG4-5) fusion protein; In Western blots and staining it was the endogenous muscle protein; also called full-length myotilin
T1 sequence: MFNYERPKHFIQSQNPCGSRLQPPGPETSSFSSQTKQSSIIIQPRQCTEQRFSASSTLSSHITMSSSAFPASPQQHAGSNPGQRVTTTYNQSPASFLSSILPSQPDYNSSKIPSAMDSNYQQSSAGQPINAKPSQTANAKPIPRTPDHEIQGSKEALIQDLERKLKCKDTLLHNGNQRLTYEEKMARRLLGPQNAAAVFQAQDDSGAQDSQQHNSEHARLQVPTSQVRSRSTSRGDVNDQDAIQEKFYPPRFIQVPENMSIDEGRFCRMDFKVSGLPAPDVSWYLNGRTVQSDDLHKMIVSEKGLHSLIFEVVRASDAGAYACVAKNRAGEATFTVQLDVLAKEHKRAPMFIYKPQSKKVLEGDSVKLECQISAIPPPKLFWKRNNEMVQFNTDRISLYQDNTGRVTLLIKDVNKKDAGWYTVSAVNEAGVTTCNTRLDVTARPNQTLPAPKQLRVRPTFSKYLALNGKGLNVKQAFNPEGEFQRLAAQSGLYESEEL
Experimental: (§1) The COOH-terminal construct of myotilin was subcloned from a partial cDNA sequence obtained from the skeletal muscle library screen. The authentity of the constructs was verified by sequencing. The genotype of the S. cerevisiae strain BOY1, kindly provided by P. Ljungdahl, Ludwig Institute for Cancer Research, Stockholm, Sweden, is MATαhis3 trp1 leu2::6LexAop-LEU2 URA3::8LexAop-Gal1-LacZ. Boy1 mating type a was made using the YCPHO CUT4 plasmid. Yeast strains were grown at 30° C. in rich medium or in synthetic minimal medium with appropriate amino acid supplements. Bait and prey constructs were transformed into BOY1-yeast of both a and a mating type using the TRAFO protocol and plated on selection plates. Clones were grown to late logarithmic phase in selective medium. For analysis of fusion protein expression, yeast cells from 1 ml of overnight culture were lysed in reducing Laemmli sample buffer, the samples were boiled and analyzed by SDS-PAGE and immunoblotting. Baits and preys were grown on selection plates, replica plated together on rich media plates for mating overnight and replica plated on double (tryptophane and histidine) or triple (tryptophane, histidine and leucine) selection with or without 5-bromo-4-chloro-3-indolyl-β-D-galactopyranoside (X-gal)(Boehringer) for selection of interactions.

[2] = target: T2, spectrin-like repeats R1-R4 (residues 267-749) of chicken smooth muscle α-actinin (chicken, UniProt P05094 267-749); experiment: yeast two-hybrid
T2 construct: range 267-749; Expressed as a bait (EG202) or prey (JG4-5) fusion protein in the yeast two-hybrid assay; also called α-actinin (R1-R4)
T2 sequence (P05094 267-749 limits assumed): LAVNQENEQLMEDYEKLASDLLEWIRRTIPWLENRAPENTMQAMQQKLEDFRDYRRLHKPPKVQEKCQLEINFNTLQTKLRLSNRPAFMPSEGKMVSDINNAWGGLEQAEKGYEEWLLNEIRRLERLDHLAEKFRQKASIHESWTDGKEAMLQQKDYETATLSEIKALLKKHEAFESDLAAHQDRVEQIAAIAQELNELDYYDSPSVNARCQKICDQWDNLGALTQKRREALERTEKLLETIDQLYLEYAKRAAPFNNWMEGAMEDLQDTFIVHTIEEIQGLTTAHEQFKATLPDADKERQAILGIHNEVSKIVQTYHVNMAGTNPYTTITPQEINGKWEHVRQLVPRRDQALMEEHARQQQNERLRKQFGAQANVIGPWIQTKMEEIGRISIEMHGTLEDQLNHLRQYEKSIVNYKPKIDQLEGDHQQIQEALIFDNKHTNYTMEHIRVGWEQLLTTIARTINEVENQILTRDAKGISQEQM
Experimental: as §1

B1: myotilin215-498 (other)
chain: SEHARLQVPTSQVRSRSTSRGDVNDQDAIQEKFYPPRFIQVPENMSIDEGRFCRMDFKVSGLPAPDVSWYLNGRTVQSDDLHKMIVSEKGLHSLIFEVVRASDAGAYACVAKNRAGEATFTVQLDVLAKEHKRAPMFIYKPQSKKVLEGDSVKLECQISAIPPPKLFWKRNNEMVQFNTDRISLYQDNTGRVTLLIKDVNKKDAGWYTVSAVNEAGVTTCNTRLDVTARPNQTLPAPKQLRVRPTFSKYLALNGKGLNVKQAFNPEGEFQRLAAQSGLYESEEL
notes: Expressed in the yeast two-hybrid assay as a prey fusion protein in JG4-5; it could not be expressed as a bait; also called NH2-terminal deletion construct containing the Ig-domains
binding result [1]: binds | binding result [2]: no binding
